Measurements as given in the supplement of paper PMC10567573.
± gives the standard deviation.

Assay: protein stability index of a GFP-peptide fusion (GPS, HEK-293T) (PSI 1-6); higher = more stable
Conditions: c terminus: a fixed tail appended
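Also: 24-mer peptide tiles fused after GFP, lentivirally expressed, FACS-sorted into six equal bins by GFP/DsRed ratio, decoded by Illumina sequencing, PSI is the read-weighted mean bin number.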

| Sequence | protein stability index (treatment: DMSO) | protein stability index (treatment: MLN4924 1 uM, 8 h) |
| --- | --- | --- |
| IPLLSSVNVSDRGGRTALHHAALN [ANKRD44] | 3.42 ± 0.38 | 3.16 ± 0.3 |
| TLLGNPKKRMRYFDPLRNEYFFDR [KCNA1] | 2.27 ± 0.29 | 2.3 ± 0.057 |
| KELCAMSEEQFRQRSPLGGDVLHA [SPDEF] | 3.88 ± 0.27 | 3.87 ± 0.13 |
| GNNLLVFGGTGIPFGESNGNGVHV [KLHDC10] | 2.66 ± 0.36 | 2.71 ± 0.41 |
| RDNAELENLIRERSQQQEPLLCPS [KRT33B] | 4.98 ± 0.23 | 4.87 ± 0.21 |
| EDENDLEELNNGEPQTEHQQESES [MIA2] | 5.57 ± 0.21 | 5.74 ± 0.12 |
| LKKYLEPRCPRMVLSLKEGAREED [FBXO3] | 4.56 ± 0.34 | 4.19 ± 0.41 |
| KARVLRSKSLCHDEIENLLDSDHR [CDC25B] | 4.4 ± 0.13 | 4.62 ± 0.15 |
| THSPQKSHQCAHCEKTFNRKDHLK [PLAGL1] | 3.97 ± 0.16 | 4.05 ± 0.28 |
| IFRSYSRGAQGVILVYDIANRWSF [RAB40A] | 2.53 ± 0.36 | 2.36 ± 0.35 |
| LSKSNKPIHTIILNPHVHLVGDDA [CAMK2D] | 3.12 ± 0.3 | 2.95 ± 0.48 |
| PETHIFTAPEEVPKVSDQALVSAH [DMRTC1] | 4.96 ± 0.34 | 4.92 ± 0.11 |
| PVVGSTRRLYEKKIFEYETQRRRL [EMD] | 3.16 ± 0.25 | 3.18 ± 0.06 |
| LCQVAQEALASAGASCCGQPLASH [VENTX] | 3.38 ± 0.27 | 3.42 ± 0.15 |
| SERCQRQLQSLCRGLGLGGRRLKS [FANCE] | 3.22 ± 0.36 | 3.49 ± 0.47 |
| KSVRLARELESREAELRRRDTFYK [CHCHD6] | 4.23 ± 0.26 | 4.36 ± 0.29 |
| KSIYYITGESKEQVANSAFVERVR [HSP90AB1] | 3.11 ± 0.32 | – |
| DDCSSTIVEDPQTKCEYMLNSMPK [ESRRG] | 4.87 ± 0.29 | 4.95 ± 0.22 |
| AMEYAPGGTLAEFIQKRCNSLLEE [NEK8] | 3.56 ± 0.36 | 3.3 ± 0.29 |
| IVISPFRLEELTNRLASLQQENKV [CCDC6] | 2.12 ± 0.15 | 2.4 ± 0.25 |
| CTLPQLAIAWCLRNEGVSSVLLGA [KCNAB2] | 3.1 ± 0.63 | 2.89 ± 0.36 |
| NTNLHTHQRTHTGEKPFTCHECGK [ZNF75A] | 4.51 ± 0.14 | 4.54 ± 0.18 |
| QVAPLTHVFQRQKSELSDGIAILV [TRIM55] | 2.26 ± 0.49 | 2.26 ± 0.22 |

| Sequence | protein stability index (treatment: DMSO) | protein stability index (treatment: MLN4924 1 uM, 8 h) |
| --- | --- | --- |
| RRNLEEDDYLHKDTGETSMLKRPV [STEAP1] | 4.69 ± 0.13 | 4.76 ± 0.19 |
| YIFRVANHQKDLFRRTDGRCLIWG [DHCR7] | 2.77 ± 0.23 | 2.35 ± 0.41 |
| VVTTEHILVSVAAGVSLSTLEELL [PYCR3] | 3.04 ± 0.72 | 2.78 ± 0.66 |
| SIVAQVDQTGSKSSNLLDLKNPFF [CARM1] | 3.01 ± 0.15 | 3.43 ± 0.27 |
| KVFIPSLFLSHVLALGLGIYIGKR [BNIP3L] | 2.34 ± 0.89 | 2.3 ± 0.6 |
| QTNKPALRAVRQRSEFTLMAKRIG [STX5] | 3.15 ± 0.29 | 3.35 ± 0.25 |
| LPAVKVFLDWLRTNPDLIIVCAQS [SMG5] | 2.27 ± 0.47 | 2.41 ± 0.45 |
| DNPLDRPLVGQDEFFLEQTKKKGV [NOP53] | 5.25 ± 0.3 | 5.37 ± 0.22 |
| GYSWSMGAYKSSTICYCPEKGTWT [KLHL14] | 2.03 ± 0.26 | 2.08 ± 0.34 |
| RLWRLFQTLDVNRDGGLCVNDLAV [SLC25A25] | 2.56 ± 0.2 | 2.49 ± 0.17 |
| LKSMDKNGTMTIDWNEWRDYHLLH [SLC25A25] | 2.27 ± 0.05 | 2.19 ± 0.28 |
| SSETPIEGKNMSFVNDLTVTQDGR [APMAP] | 4.96 ± 0.34 | 4.87 ± 0.25 |
| KTVCGYYTSAGTYGLDSVKKKCLE [GMCL1] | 3.16 ± 0.3 | 2.97 ± 0.49 |
| LASLSFIDTVYSTAFAPKMIVDLL [OR4A15] | 2.66 ± 0.32 | 3.05 ± 0.34 |
| LHIPMYFFLAILSCSEICYTFIIV [OR10K2] | 3.65 ± 0.48 | 3.18 ± 0.38 |
| ATRAMGLLNTLSLAFVGGLPLAYQ [TMEM175] | 3.11 ± 0.32 | 2.99 ± 0.56 |
| WEKKPFSEDVNWGYEKRNLARVPK [CHGB] | 3.38 ± 0.3 | 3.87 ± 0.17 |
| LVACCLADIFRIYAPEAPYTSPDK [PDS5B] | 3.3 ± 1.4 | – |
| KCVVHIHTPAGAAVSAMKCGLLPI [ADD1] | 2.69 ± 0.52 | 2.17 ± 0.56 |
| IVDQVLEEDFDSEQLSVLASCLQE [INTS3] | 4.16 ± 0.16 | 4.23 ± 0.3 |
| IKSEDMLKILKPSIPLERIHFDSY [FBXO33] | 2.43 ± 0.23 | 2.36 ± 0.29 |
| MTVVRMDASVQPGPFRTLLQFLYT [RHOBTB1] | 2.41 ± 0.4 | 2.25 ± 0.4 |
